Legend:
Fer (mouse) = assay: phosphorylation enrichment, bacterial display (enrichment ratio); higher = better substrate or ligand; peptides without Tyr show the background
FGFR3 = FGFR3 (UniProt P22607); assay: as above
c-Abl (mouse) = assay: as above
EPHB1 = EPHB1 (UniProt P54762); assay: as above
Hck = Hck (UniProt P08631); assay: as above
Fyn = Fyn (UniProt P06241); assay: as above
EPHB2 = EPHB2 (UniProt P29323); assay: as above
Fes = Fes (UniProt P07332); assay: as above
c-Src = assay: as above
Jak2 = Jak2 (UniProt O60674); assay: as above
Chain of Jak2 (O60674 whole entry, looked up): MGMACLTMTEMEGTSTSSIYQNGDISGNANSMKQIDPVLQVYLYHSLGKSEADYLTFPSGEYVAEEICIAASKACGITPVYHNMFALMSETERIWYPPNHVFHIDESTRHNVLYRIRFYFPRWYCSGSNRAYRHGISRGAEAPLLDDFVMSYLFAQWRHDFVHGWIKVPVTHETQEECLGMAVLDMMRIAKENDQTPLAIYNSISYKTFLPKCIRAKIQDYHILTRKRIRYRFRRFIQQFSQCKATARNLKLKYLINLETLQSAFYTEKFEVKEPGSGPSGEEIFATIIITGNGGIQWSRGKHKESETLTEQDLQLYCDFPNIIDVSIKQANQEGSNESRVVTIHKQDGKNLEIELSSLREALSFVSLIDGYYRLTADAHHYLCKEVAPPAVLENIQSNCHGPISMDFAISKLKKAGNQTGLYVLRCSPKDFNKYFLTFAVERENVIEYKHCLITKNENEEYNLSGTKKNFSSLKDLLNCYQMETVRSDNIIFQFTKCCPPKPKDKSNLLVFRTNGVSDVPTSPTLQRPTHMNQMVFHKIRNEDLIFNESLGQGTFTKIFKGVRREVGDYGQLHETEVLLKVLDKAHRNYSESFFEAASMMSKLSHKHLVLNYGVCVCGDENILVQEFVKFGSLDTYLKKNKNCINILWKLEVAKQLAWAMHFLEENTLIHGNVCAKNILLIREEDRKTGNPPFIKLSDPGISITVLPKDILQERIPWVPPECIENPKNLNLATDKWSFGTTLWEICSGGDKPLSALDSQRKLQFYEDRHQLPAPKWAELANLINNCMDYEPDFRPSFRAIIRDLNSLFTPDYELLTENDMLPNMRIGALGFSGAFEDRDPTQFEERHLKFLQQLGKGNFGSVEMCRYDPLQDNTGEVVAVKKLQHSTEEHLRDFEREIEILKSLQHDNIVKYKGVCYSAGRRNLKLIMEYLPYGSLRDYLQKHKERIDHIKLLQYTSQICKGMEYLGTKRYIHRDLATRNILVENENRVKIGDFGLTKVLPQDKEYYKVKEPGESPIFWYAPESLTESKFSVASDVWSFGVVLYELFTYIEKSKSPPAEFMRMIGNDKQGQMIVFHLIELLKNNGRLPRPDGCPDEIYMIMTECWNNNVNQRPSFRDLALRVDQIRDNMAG

FGFR1 = FGFR1 (UniProt P11362); assay: as above
AncSZ = assay: as above
MERTK = MERTK (UniProt Q12866); assay: as above
c-Src SH2 = assay: SH2 binding enrichment of the phosphorylated peptide, bacterial display (enrichment ratio); higher = better substrate or ligand; peptides without Tyr show the background
SHP2-C SH2 = assay: as above
Grb2 SH2 = Grb2 SH2 (UniProt P62993); assay: as above
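Wherever SH2 binding enrichment of the phosphorylated peptide, bacterial display is given: peptide library displayed on the E. coli surface as eCPX fusions, selected cells deep-sequenced, score is each peptide's frequency after selection divided by its frequency in the input.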
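Wherever phosphorylation enrichment, bacterial display is given: 11-residue human phosphosite peptides and single-mutation variants displayed on the E. coli surface, counted by deep sequencing, each peptide's frequency after selection divided by its frequency in the unselected input library; frequency after pTyr selection over input frequency; kinase dosed for 20-30% of maximal phosphorylation in three min.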

Chain of EPHB2 (P29323 whole entry, looked up): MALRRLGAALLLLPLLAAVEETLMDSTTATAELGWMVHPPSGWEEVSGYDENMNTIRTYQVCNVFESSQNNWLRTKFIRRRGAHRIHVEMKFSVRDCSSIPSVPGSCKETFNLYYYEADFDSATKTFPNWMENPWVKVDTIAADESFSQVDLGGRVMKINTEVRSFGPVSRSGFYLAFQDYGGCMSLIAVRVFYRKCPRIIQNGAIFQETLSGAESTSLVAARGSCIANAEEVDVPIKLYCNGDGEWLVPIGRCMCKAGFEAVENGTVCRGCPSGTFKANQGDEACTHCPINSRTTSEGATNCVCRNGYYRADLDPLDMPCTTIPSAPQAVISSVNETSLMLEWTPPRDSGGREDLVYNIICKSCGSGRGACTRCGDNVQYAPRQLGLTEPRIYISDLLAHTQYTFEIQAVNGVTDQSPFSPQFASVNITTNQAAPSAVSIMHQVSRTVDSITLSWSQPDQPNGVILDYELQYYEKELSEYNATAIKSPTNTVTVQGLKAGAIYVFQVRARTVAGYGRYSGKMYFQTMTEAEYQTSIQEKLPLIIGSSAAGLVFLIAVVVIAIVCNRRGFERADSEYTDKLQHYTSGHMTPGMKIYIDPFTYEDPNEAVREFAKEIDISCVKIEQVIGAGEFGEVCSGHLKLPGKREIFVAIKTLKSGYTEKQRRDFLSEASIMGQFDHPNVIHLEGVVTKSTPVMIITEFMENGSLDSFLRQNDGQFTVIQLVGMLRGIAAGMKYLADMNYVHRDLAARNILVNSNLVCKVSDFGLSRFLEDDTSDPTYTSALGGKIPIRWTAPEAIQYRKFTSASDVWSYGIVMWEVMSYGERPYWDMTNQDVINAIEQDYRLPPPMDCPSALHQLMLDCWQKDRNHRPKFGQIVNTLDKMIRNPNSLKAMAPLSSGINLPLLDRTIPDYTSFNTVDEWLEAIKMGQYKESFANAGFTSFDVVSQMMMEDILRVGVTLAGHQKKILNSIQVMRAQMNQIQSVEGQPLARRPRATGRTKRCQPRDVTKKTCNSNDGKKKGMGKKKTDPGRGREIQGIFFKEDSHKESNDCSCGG
Chain of FGFR3 (P22607 whole entry, looked up): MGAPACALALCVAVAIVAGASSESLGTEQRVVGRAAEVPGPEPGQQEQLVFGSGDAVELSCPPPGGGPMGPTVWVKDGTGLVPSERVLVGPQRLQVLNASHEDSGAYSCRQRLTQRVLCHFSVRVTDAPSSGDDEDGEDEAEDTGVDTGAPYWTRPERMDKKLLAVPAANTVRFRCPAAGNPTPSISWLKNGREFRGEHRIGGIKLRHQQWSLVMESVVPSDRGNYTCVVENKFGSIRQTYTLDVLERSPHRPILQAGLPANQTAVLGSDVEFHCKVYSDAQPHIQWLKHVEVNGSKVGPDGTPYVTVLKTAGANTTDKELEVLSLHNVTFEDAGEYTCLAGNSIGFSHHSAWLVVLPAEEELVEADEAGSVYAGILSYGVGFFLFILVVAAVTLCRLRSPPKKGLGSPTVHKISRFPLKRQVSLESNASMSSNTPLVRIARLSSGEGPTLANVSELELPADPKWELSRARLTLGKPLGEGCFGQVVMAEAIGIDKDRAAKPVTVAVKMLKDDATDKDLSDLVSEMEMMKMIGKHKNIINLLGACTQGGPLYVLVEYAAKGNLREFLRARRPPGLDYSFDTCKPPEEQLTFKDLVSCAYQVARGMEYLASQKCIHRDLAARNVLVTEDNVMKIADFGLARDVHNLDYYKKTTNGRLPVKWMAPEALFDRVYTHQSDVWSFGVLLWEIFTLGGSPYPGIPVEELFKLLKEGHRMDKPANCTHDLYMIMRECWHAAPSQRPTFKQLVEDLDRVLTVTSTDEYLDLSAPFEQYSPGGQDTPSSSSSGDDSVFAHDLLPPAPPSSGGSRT
Chain of Fes (P07332 whole entry, looked up): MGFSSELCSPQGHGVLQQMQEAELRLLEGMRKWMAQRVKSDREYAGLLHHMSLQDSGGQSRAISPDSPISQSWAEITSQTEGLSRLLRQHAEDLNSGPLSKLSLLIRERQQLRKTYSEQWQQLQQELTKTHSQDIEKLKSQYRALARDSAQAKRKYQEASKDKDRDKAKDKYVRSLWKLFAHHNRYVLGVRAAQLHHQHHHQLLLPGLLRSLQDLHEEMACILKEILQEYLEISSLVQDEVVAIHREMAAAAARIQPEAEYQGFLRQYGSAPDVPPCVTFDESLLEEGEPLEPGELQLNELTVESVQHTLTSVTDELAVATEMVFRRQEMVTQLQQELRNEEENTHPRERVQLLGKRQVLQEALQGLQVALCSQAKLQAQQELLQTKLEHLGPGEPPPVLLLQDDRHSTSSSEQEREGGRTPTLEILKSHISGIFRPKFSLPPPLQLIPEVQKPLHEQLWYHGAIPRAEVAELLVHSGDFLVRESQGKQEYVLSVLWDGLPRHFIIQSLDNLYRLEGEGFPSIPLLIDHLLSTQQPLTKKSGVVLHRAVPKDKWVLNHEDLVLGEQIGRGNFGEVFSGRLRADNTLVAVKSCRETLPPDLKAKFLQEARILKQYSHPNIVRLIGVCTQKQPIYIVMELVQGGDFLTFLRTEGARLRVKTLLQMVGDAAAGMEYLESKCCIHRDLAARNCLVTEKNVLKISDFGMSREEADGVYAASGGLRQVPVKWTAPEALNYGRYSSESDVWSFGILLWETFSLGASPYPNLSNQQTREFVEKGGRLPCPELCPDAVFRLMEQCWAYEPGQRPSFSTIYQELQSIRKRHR
Chain of EPHB1 (P54762 whole entry, looked up): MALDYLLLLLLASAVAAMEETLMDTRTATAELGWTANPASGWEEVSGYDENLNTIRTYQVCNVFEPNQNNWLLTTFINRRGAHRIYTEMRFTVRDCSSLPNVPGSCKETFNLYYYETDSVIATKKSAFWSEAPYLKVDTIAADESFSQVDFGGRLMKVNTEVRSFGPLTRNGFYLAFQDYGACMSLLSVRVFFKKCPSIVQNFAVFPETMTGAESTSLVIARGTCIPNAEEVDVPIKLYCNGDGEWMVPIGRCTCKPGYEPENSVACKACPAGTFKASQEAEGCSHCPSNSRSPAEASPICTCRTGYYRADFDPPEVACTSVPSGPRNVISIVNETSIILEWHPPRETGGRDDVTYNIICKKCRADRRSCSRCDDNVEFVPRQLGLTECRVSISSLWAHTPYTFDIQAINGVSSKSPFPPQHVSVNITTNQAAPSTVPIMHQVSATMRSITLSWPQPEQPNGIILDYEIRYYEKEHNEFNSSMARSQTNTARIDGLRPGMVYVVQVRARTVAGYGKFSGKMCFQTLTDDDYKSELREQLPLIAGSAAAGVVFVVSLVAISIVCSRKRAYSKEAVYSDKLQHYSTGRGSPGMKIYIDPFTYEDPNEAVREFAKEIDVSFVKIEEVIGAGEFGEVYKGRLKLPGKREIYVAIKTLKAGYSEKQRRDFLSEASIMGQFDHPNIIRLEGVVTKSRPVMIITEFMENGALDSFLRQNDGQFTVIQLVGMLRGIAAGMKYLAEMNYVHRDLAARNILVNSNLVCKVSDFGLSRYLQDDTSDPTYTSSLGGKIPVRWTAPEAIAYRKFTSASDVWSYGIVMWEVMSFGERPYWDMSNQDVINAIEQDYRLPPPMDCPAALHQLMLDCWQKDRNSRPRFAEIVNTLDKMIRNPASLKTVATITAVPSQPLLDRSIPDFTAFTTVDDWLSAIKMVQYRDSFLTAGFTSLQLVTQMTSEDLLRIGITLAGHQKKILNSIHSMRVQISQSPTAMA

SH2 binding enrichment (c-Src SH2) | SH2 binding enrichment (SHP2-C SH2) | SH2 binding enrichment (Grb2 SH2) | Sequence | phosphorylation enrichment (Fer (mouse)) | phosphorylation enrichment (FGFR3) | phosphorylation enrichment (c-Abl (mouse)) | phosphorylation enrichment (EPHB1) | phosphorylation enrichment (Hck) | phosphorylation enrichment (Fyn) | phosphorylation enrichment (EPHB2) | phosphorylation enrichment (Fes) | phosphorylation enrichment (c-Src) | phosphorylation enrichment (Jak2) | phosphorylation enrichment (FGFR1) | phosphorylation enrichment (AncSZ) | phosphorylation enrichment (MERTK)
0.471 | 0.57 | 0.615 | IDDLEYLHSQG [STK11_Y166_G163D] | 0.61 | 0.737 | 0.636 | 0.638 | 0.531 | 0.581 | 0.777 | 1.24 | 0.578 | 0.865 | 0.676 | 1.22 | 0.572
0.513 | 0.599 | 0.725 | MEVEQYIFVKC [CYBB_Y324_G322E] | 0.679 | 1.99 | 1.04 | 1.03 | 0.71 | 0.575 | 0.868 | 1.64 | 0.594 | 1.53 | 1.98 | 1.74 | 0.509
0.617 | 0.646 | 0.751 | VSGIPYSQPKQ [NEU1_Y251_G252S] | 0.467 | 0.443 | 0.416 | 0.234 | 0.358 | 0.398 | 0.4 | 0.474 | 0.388 | 0.943 | 0.389 | 0.467 | 0.326
0.724 | 0.722 | 0.581 | TAPFNYSFIFK [RAB14_Y8_YF] | 0.376 | 0.771 | 0.657 | 2 | 0.56 | 0.493 | 0.692 | 1.1 | 0.377 | 0.757 | 0.405 | 0.975 | 2.27
0.455 | 0.568 | 0.828 | DFDHSYFFIAT [ESD_Y262_G257D_YF] | 0.786 | 7.62 | 0.958 | 0.717 | 0.694 | 0.55 | 0.606 | 1.36 | 0.738 | 7.99 | 8.9 | 2.16 | 0.867
0.501 | 0.802 | 0.55 | SHRQDYLVGNK [GSTA1_Y147_G144R] | 0.334 | 0.415 | 0.867 | 0.488 | 0.397 | 0.435 | 0.431 | 0.665 | 0.385 | 0.466 | 0.324 | 0.441 | 0.311
0.626 | 1 | 0.848 | QLLIKYPPEEV [ZZZ3_Y670] | 0.473 | 0.95 | 1.25 | 0.898 | 0.566 | 0.7 | 0.816 | 1.62 | 0.604 | 1.39 | 0.811 | 1.25 | 0.858
0.38 | 0.354 | 0.636 | TWSRSYRSDRL [CRYBB1_Y131_S129R] | 0.452 | 0.494 | 0.586 | 0.445 | 0.614 | 0.453 | 0.51 | 0.715 | 0.545 | 0.778 | 0.607 | 0.676 | 0.518
0.407 | 0.739 | 0.85 | IRTIDYRFTVC [IDS_Y497_W502C_YF] | 0.518 | 0.832 | 0.952 | 0.787 | 0.581 | 0.444 | 0.579 | 1.38 | 0.469 | 1.14 | 0.561 | 1.22 | 0.396
0.47 | 0.586 | 0.845 | AEMTGYVVTRW [MAPK13_Y182] | 0.499 | 0.834 | 0.895 | 0.636 | 0.467 | 0.468 | 0.586 | 1.3 | 0.486 | 1.34 | 0.526 | 1.17 | 0.372
1.92 | 0.79 | 0.882 | AAAAVYTFLPD [MYORG_Y36_M35V] | 1.85 | 10.6 | 1.12 | 3.68 | 6.52 | 8.32 | 2.45 | 1.2 | 7.02 | 0.979 | 12.4 | 1.48 | 9.47
0.472 | 0.553 | 0.812 | STEAIYRRFSK [SH3PXD2B_Y42_YF] | 0.402 | 0.408 | 1.2 | 0.334 | 0.379 | 0.506 | 0.293 | 0.486 | 0.45 | 0.353 | 0.493 | 0.431 | 0.372
0.646 | 0.741 | 1.23 | GMKIVYVYVKK [DNAI2_Y5_E2K] | 0.605 | 0.587 | 0.801 | 0.567 | 0.459 | 0.466 | 0.594 | 1.12 | 0.473 | 0.899 | 0.479 | 1.11 | 0.418
0.494 | 1 | 0.887 | EPSVDCCVVKI [CAD_Y735_Y735C] | 0.411 | 0.586 | 0.816 | 0.449 | 0.371 | 0.336 | 0.499 | 1.18 | 0.369 | 1.01 | 0.432 | 1.07 | 0.376
0.608 | 0.593 | 0.682 | IKSSIYDNRNE [ARAP2_Y380_K384N] | 0.33 | 0.388 | 0.397 | 0.413 | 0.696 | 0.464 | 0.502 | 0.584 | 0.399 | 0.466 | 0.443 | 0.505 | 0.405
2.53 | 0.892 | 1.03 | CQKRKYIEIDS [SDAD1_Y580_S575C] | 0.431 | 0.6 | 0.446 | 0.513 | 0.48 | 0.485 | 0.505 | 0.814 | 0.479 | 0.616 | 0.55 | 0.657 | 0.38
1.91 | 0.486 | 0.82 | LSDGPYSNPFE [EPOR_Y485_YF] | 0.822 | 0.614 | 0.701 | 0.547 | 0.843 | 1.77 | 0.628 | 1.16 | 0.856 | 0.862 | 0.491 | 1.47 | 0.534

SH2 binding enrichment (c-Src SH2) | SH2 binding enrichment (SHP2-C SH2) | SH2 binding enrichment (Grb2 SH2) | Sequence | phosphorylation enrichment (Fer (mouse)) | phosphorylation enrichment (FGFR3) | phosphorylation enrichment (c-Abl (mouse)) | phosphorylation enrichment (EPHB1) | phosphorylation enrichment (Hck) | phosphorylation enrichment (Fyn) | phosphorylation enrichment (EPHB2) | phosphorylation enrichment (Fes) | phosphorylation enrichment (c-Src) | phosphorylation enrichment (Jak2) | phosphorylation enrichment (FGFR1) | phosphorylation enrichment (AncSZ) | phosphorylation enrichment (MERTK)
0.51 | 0.686 | 1.13 | KTVQDYLEKFY [MMP8_Y36] | 0.562 | 0.707 | 1.23 | 0.673 | 0.539 | 0.708 | 0.711 | 1.31 | 0.674 | 1.21 | 0.627 | 1.36 | 0.517
0.617 | 0.809 | 0.947 | EFISEYCGEII [EZH2_Y641] | 0.678 | 1.05 | 0.905 | 0.901 | 0.664 | 0.692 | 0.716 | 1.33 | 0.576 | 1.05 | 0.604 | 1.61 | 0.616
0.541 | 0.692 | 1.1 | DVQNEYDSNHC [ZFYVE16_Y36_A35E] | 0.414 | 0.665 | 0.671 | 0.508 | 0.576 | 0.59 | 0.513 | 1.07 | 0.444 | 0.701 | 0.512 | 1.01 | 0.477
1.52 | 1.68 | 1.96 | FVSIVYNDFGE [TSC2_Y1650_S1653F] | 0.514 | 0.801 | 0.725 | 0.605 | 0.642 | 0.599 | 0.665 | 1.16 | 0.856 | 0.991 | 0.561 | 1.21 | 0.422
1.11 | 1.4 | 1.33 | NHFKICNLCAE [PTEN_Y68_Y68C_YF] | 0.4 | 0.544 | 0.75 | 0.461 | 0.413 | 0.415 | 0.468 | 0.687 | 0.486 | 0.682 | 0.401 | 0.609 | 0.484
0.631 | 0.751 | 0.939 | HRNGMYGLHQD [SGSH_Y89_Q85R] | 0.432 | 0.421 | 0.502 | 0.39 | 0.294 | 0.49 | 0.51 | 0.428 | 0.389 | 0.626 | 0.485 | 0.515 | 0.396
0.577 | 0.958 | 1.03 | SVVVPSEPPEV [TP53_Y220_Y220S] | 0.426 | 0.755 | 0.74 | 0.598 | 0.484 | 0.511 | 0.642 | 1.12 | 0.449 | 0.851 | 0.503 | 0.971 | 0.431
0.606 | 0.729 | 0.996 | EQKKFYNATKK [SCN5A_Y1495_M1498T_YF] | 0.374 | 0.487 | 0.497 | 0.383 | 0.449 | 0.437 | 0.348 | 0.674 | 0.554 | 0.436 | 0.412 | 0.668 | 0.404
0.684 | 0.827 | 1.01 | LKGQVYILGWE [ASS1_Y359_R363W] | 0.642 | 0.81 | 0.804 | 0.655 | 0.508 | 0.575 | 0.57 | 1.4 | 0.575 | 1.14 | 0.544 | 1.14 | 0.428
0.488 | 0.635 | 0.882 | CSPLLYKVIMS [OR8D4_Y132_R133K] | 0.611 | 0.819 | 0.955 | 0.693 | 0.566 | 0.507 | 0.648 | 1.21 | 0.445 | 0.989 | 0.518 | 1.06 | 0.6
0.501 | 0.671 | 0.716 | APRKVYDTQDD [ZFPL1_Y215_R218Q] | 0.67 | 0.653 | 0.766 | 0.692 | 0.586 | 0.495 | 0.685 | 1.09 | 0.479 | 0.808 | 0.549 | 0.993 | 0.466
0.445 | 0.533 | 0.885 | LPPGTYPSDFT [UNC5B_Y511_A516T] | 0.403 | 0.85 | 1.78 | 0.694 | 0.613 | 0.82 | 0.536 | 1.25 | 0.697 | 0.571 | 0.717 | 1.58 | 1.04
0.629 | 0.821 | 1.01 | TQTPPYVKKHP [LARP1B_Y457] | 0.439 | 0.521 | 0.514 | 0.458 | 0.357 | 0.459 | 0.39 | 0.624 | 0.488 | 0.593 | 0.34 | 0.677 | 0.466
0.997 | 0.673 | 1.2 | YVPSFYHAFSG [ACTN4_Y265_S262P] | 0.407 | 1.17 | 1.06 | 2.09 | 1.94 | 1.82 | 1.03 | 0.99 | 2.17 | 0.794 | 1.32 | 0.81 | 7.65
0.861 | 0.974 | 1.3 | NLNGKYYKPRA [ANGPTL3_Y417_N418Y] | 0.354 | 0.445 | 0.61 | 0.404 | 0.312 | 0.241 | 0.324 | 0.57 | 0.406 | 0.617 | 0.408 | 0.474 | 0.304
0.477 | 0.591 | 0.963 | VREIRCQGGNR [VWF_Y1570_Y1570C] | 0.296 | 0.419 | 0.675 | 0.416 | 0.465 | 0.401 | 0.432 | 0.682 | 0.5 | 0.771 | 0.478 | 0.648 | 0.406

Reference: the supplement of paper PMC10065799, “High-throughput profiling of sequence recognition by tyrosine kinases and SH2 domains using bacterial peptide display” (eLife, 2023)
